First the molecules themselves.
B1: SEPHS2 (parent)
chain: KASGRFGLLQGTSAETSGGLLICL

In the supplement of paper PMC10567573 one finds protein stability index data, which are given here for 94 variants.
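Note: lentivirally expressed fusions sorted by FACS into six bins by GFP to DsRed ratio, PSI derived from sequencing read proportions per bin multiplied by bin number.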

Variants of B1 are the subject of the data set. Nature of the data set: protein stability index of a GFP-peptide fusion (GPS, HEK-293T) (PSI 1-6); higher = more stable. As to conditions: c terminus: a fixed tail appended.
For the variant KASGRFGLLQGTSAETSGYLLICL [G19Y], the protein stability index was 1.89.

Regarding KASGRFGLLQGTSAETSGRLLICL [G19R], the protein stability index was determined as 2.62.

As for KASGRFGLLQGTSAETSGILLICL [G19I], the protein stability index was 2.54.

As to KASGRFGLLQGTSAETSGMLLICL [G19M], the protein stability index is 2.76.

KASGFFGLLQGTSAETSGGLLICL [R5F]: the protein stability index was 3.72.

As to KASGVFGLLQGTSAETSGGLLICL [R5V], the protein stability index came to 3.1.

On to KASGTFGLLQGTSAETSGGLLICL [R5T], for which the protein stability index was 3.23.

Consider KASGDFGLLQGTSAETSGGLLICL [R5D], for which the protein stability index came out at 2.61.

As for KASGLFGLLQGTSAETSGGLLICL [R5L], the protein stability index came out at 3.49.

In the case of KASGAFGLLQGTSAETSGGLLICL [R5A], the protein stability index turned out to be 5.51.

On to KASGRFGLLQGTSAYTSGGLLICL [E15Y], for which the protein stability index turned out to be 4.55.

On to KASGRFGLLQGTSAATSGGLLICL [E15A], for which the protein stability index was found to be 2.02.

For KASGRFGLLQGTSADTSGGLLICL [E15D], the protein stability index stood at 2.1.

On to KASGRFGLLQGTSATTSGGLLICL [E15T], for which the protein stability index is 2.48.

Consider KASGRFGLLQGTSAETSNGLLICL [G18N], for which the protein stability index came to 2.2.

As for KASGRFGLLQGTSAETSKGLLICL [G18K], the protein stability index is 2.4.

For KASGRFGLLQGTSAETSPGLLICL [G18P], the protein stability index was 2.98.

Consider KASGRFGLLQGTSAETSQGLLICL [G18Q], for which the protein stability index is 2.5.

Consider KASGRFGLLQGTSAETSDGLLICL [G18D], for which the protein stability index came to 2.67.

Regarding KASGRFGLLQGTSLETSGGLLICL [A14L], the protein stability index came to 2.44.

As for KASGRFGLLQGTSYETSGGLLICL [A14Y], the protein stability index came out at 2.24.

For KASGRFGLLQGTSCETSGGLLICL [A14C], the protein stability index came to 1.81.

KASGRFGVLQGTSAETSGGLLICL [L8V]: the protein stability index amounted to 3.22.

KASGRFGILQGTSAETSGGLLICL [L8I]: the protein stability index came out at 2.17.

Turning to KASGRFGKLQGTSAETSGGLLICL [L8K], the protein stability index is 3.37.

KASGRFGYLQGTSAETSGGLLICL [L8Y]: the protein stability index is 1.85.

Regarding KASGRFGWLQGTSAETSGGLLICL [L8W], the protein stability index worked out at 2.08.

Regarding KASGRFGLLQGTSAETSGGLMICL [L21M], the protein stability index is 2.35.

As to KASGRFGLLQGTSAETSGGLTICL [L21T], the protein stability index amounted to 2.38.

Turning to KASGRFGLLQGTSAETSGGLSICL [L21S], the protein stability index was 2.68.

In the case of KASGRFGLLQGTSAETSGGLAICL [L21A], the protein stability index amounted to 1.04.

With KASGRFGLLQGTSAEISGGLLICL [T16I], the protein stability index was 2.5.

In the case of KASGRFGLLQGTSAEHSGGLLICL [T16H], the protein stability index turned out to be 1.88.

For KASGRFGLLQHTSAETSGGLLICL [G11H], the protein stability index was 2.12.

As to KASGRFGLLQKTSAETSGGLLICL [G11K], the protein stability index was 3.04.

As for KASGRFGLLQSTSAETSGGLLICL [G11S], the protein stability index amounted to 1.86.

As for KASGRFGLLQNTSAETSGGLLICL [G11N], the protein stability index worked out at 2.76.

Regarding KASGRFGLLQMTSAETSGGLLICL [G11M], the protein stability index was 2.37.

For KASGRFGLLQQTSAETSGGLLICL [G11Q], the protein stability index is 2.54.

As for KGSGRFGLLQGTSAETSGGLLICL [A2G], the protein stability index stood at 1.38.

For KYSGRFGLLQGTSAETSGGLLICL [A2Y], the protein stability index was determined as 2.29.

Take KDSGRFGLLQGTSAETSGGLLICL [A2D]: the protein stability index is 2.81.

On to KQSGRFGLLQGTSAETSGGLLICL [A2Q], for which the protein stability index was determined as 3.26.

As to KASGRFGLLQGTSAETSGGELICL [L20E], the protein stability index came to 1.82.

KASGRFGLLQGTSAETSGGSLICL [L20S]: the protein stability index turned out to be 1.94.

Consider KASGRFGLLQGTSAETSGGPLICL [L20P], for which the protein stability index is 2.39.

As for KASGRFGLLQGTSAETSGGNLICL [L20N], the protein stability index was determined as 2.63.

In the case of KASGRFGLIQGTSAETSGGLLICL [L9I], the protein stability index is 2.41.

As for KASGRFGLPQGTSAETSGGLLICL [L9P], the protein stability index is 2.32.

On to KASGRFSLLQGTSAETSGGLLICL [G7S], for which the protein stability index worked out at 2.55.

In the case of KASGRFTLLQGTSAETSGGLLICL [G7T], the protein stability index is 1.88.

In the case of KASGRFNLLQGTSAETSGGLLICL [G7N], the protein stability index is 2.13.

On to KASGRFWLLQGTSAETSGGLLICL [G7W], for which the protein stability index worked out at 2.21.

Regarding KASPRFGLLQGTSAETSGGLLICL [G4P], the protein stability index was 1.95.

Turning to KASLRFGLLQGTSAETSGGLLICL [G4L], the protein stability index was found to be 2.01.

In the case of KASDRFGLLQGTSAETSGGLLICL [G4D], the protein stability index came out at 2.9.

For the variant KASARFGLLQGTSAETSGGLLICL [G4A], the protein stability index was found to be 4.01.

KASKRFGLLQGTSAETSGGLLICL [G4K]: the protein stability index is 3.51.

Turning to KASGRFGLLQGTSAETSGGLLICD [L24D], the protein stability index was 2.99.

With KASGRFGLLQGTSAETSGGLLICT [L24T], the protein stability index amounted to 2.43.

Take KASGRFGLLQGTSAETSGGLLICN [L24N]: the protein stability index was found to be 2.11.

Take KASGRFGLLQGTSAETSGGLLICY [L24Y]: the protein stability index stood at 2.62.

For KASGRFGLLQGESAETSGGLLICL [T12E], the protein stability index turned out to be 2.52.

KASGRFGLLPGTSAETSGGLLICL [Q10P]: the protein stability index was 2.19.

Turning to KASGRFGLLNGTSAETSGGLLICL [Q10N], the protein stability index turned out to be 2.95.

Turning to KASGRFGLLQGTSAETGGGLLICL [S17G], the protein stability index turned out to be 2.08.

In the case of KASGRFGLLQGTSAETLGGLLICL [S17L], the protein stability index turned out to be 1.18.

Regarding KASGRFGLLQGTSAETWGGLLICL [S17W], the protein stability index is 3.02.

For the variant KASGRFGLLQGTSAETSGGLLISL [C23S], the protein stability index stood at 1.81.

For the variant KASGRFGLLQGTSAETSGGLLITL [C23T], the protein stability index was determined as 1.32.

For the variant KASGRFGLLQGTSAETSGGLLIDL [C23D], the protein stability index stood at 2.02.

For KASGRFGLLQGTKAETSGGLLICL [S13K], the protein stability index was found to be 2.7.

Regarding KASGRFGLLQGTVAETSGGLLICL [S13V], the protein stability index was found to be 4.84.

As to KASGRFGLLQGTSAETSGGLLACL [I22A], the protein stability index was 1.82.

Consider KASGRFGLLQGTSAETSGGLLKCL [I22K], for which the protein stability index came out at 2.14.

Turning to KASGRFGLLQGTSAETSGGLLDCL [I22D], the protein stability index was 1.72.

Consider KASGRFGLLQGTSAETSGGLLMCL [I22M], for which the protein stability index was found to be 1.28.

Take KASGRFGLLQGTSAETSGGLLYCL [I22Y]: the protein stability index amounted to 1.71.

Consider KASGRFGLLQGTSAETSGGLLECL [I22E], for which the protein stability index worked out at 2.64.

As to KASGRFGLLQGTSAETSGGLLCCL [I22C], the protein stability index worked out at 2.02.

Regarding KASGRFGLLQGTSAETSGGLLFCL [I22F], the protein stability index amounted to 4.06.

KASGRFGLLQGTSAETSGGLLTCL [I22T]: the protein stability index worked out at 2.33.

In the case of SASGRFGLLQGTSAETSGGLLICL [K1S], the protein stability index was determined as 3.13.

For the variant GASGRFGLLQGTSAETSGGLLICL [K1G], the protein stability index was 1.44.

Consider DASGRFGLLQGTSAETSGGLLICL [K1D], for which the protein stability index was 2.07.

In the case of KASGRLGLLQGTSAETSGGLLICL [F6L], the protein stability index was 2.48.

As to KASGRVGLLQGTSAETSGGLLICL [F6V], the protein stability index amounted to 1.57.

On to KASGRTGLLQGTSAETSGGLLICL [F6T], for which the protein stability index is 3.52.

Regarding KASGRQGLLQGTSAETSGGLLICL [F6Q], the protein stability index came out at 2.79.

As to KARGRFGLLQGTSAETSGGLLICL [S3R], the protein stability index was determined as 1.82.

Take KAFGRFGLLQGTSAETSGGLLICL [S3F]: the protein stability index is 1.71.

As to KADGRFGLLQGTSAETSGGLLICL [S3D], the protein stability index came out at 2.07.

For the variant KAPGRFGLLQGTSAETSGGLLICL [S3P], the protein stability index came to 3.31.

Take KAEGRFGLLQGTSAETSGGLLICL [S3E]: the protein stability index worked out at 2.76.
